Experimental findings from patent publication US20250073303A1, “TDP-43 Interference Peptides, Methods, and Uses Thereof” (The University of British Columbia, priority 2022, published 2025) are described below.

For test [1], the target named is TDP-43 (Homo sapiens, UniProt Q13148). Nature of the test: Sodium arsenite induced TDP-43 and phosphoTDP-43 accumulation and PARP cleavage in SH-SY5Y cells. The format is cell-based. The note with it: 1 mM sodium arsenite for 3 hours. The protocol: FIG. 5. Synthetic peptides derived from CK-1δ block TDP-43 phosphorylation, aggregation and partially rescue cell death in different cellular models. […] DAPI (Blue) staining was used to determine nuclear localization. […] Representative immunoblots showing efficient siRNA knockdown of CK-1δ in SH-SY5Y cells. […] (C) Representative immunoblots showing effective blocking of TDP-43 phosphorylation and aggregation by 20 μM peptide mixture in SH-SY5Y cells, but not in HEK293 cells with ethacrynic acid (EA) treatment. (D) Dose response of peptide mixture on blocking TDP-43 aggregation in primary cultured neurons treated with 20 μM ethacrynic acid. Quantification of insoluble TDP-43 expression was shown on the right. […] The significance among the groups was calculated by one-way ANOVA, *p<0.05. The statistical significance of the difference between scramble peptides and peptide mixture groups was calculated by student's t test, #p<0.05. […] Significant differences among the groups was calculated by One-way ANOVA, *p<0.05. Significance between scramble peptides and peptide mixture group was calculated by student's t test, #p<0.05. (G) Peptide D and the peptide mixture reduces TDP-43 phosphorylation and aggregation in SH-SY5Y cells following sodium arsenite treatment. […] TDP-43, phosphoTDP-43, PARP, and actin in the soluble and insoluble fraction were analyzed by western blotting. […]
TDP-43 (Homo sapiens, UniProt Q13148), sequence (Q13148 whole entry): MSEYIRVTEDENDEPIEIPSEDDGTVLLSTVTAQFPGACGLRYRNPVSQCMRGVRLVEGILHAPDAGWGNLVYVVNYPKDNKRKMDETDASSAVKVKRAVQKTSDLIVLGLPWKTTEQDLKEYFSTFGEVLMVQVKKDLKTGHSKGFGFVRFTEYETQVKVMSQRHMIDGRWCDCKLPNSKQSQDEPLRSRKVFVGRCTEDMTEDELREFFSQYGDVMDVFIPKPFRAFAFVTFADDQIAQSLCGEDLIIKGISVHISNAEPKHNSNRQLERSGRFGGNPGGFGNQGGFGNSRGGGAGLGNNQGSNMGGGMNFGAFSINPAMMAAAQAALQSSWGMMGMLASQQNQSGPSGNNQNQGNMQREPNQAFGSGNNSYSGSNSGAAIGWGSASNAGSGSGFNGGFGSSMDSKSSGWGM

In test [2] the target is TDP-43 (Mus musculus, UniProt Q921F2). Nature of the test: LPS (5 mg/kg) plus sciatic nerve axotomy in mice: TDP-43 and phosphoTDP-43 aggregates. The format is in vivo. Also noted: from tissue; host or cells: ventral lumbosacral spinal cord of mice, axotomy side. The note with it: LPS 5 mg/kg i.p. plus axotomy, day 3 post-surgery, 10 and 20 mg/kg once daily i.p. As to the method:
FIG. 13: Example peptide D dose dependently reduces TDP-43 and phosphoTDP-43 aggregates in lumbar spinal cord of mice with LPS plus sciatic nerve axotomy. Western blot analysis of TDP-43 and phosphoTDP-43 expression in the soluble and insoluble fraction of ipsilateral lumbar spinal cord tissue that was collected in mice three days post LPS (5 mg/kg) plus sciatic nerve axotomy procedure. Group 1: Non-surgical mice. Group 2: Control mice with LPS plus sciatic nerve axotomy. Group 3: 10 mg/kg of peptide D treatment (once daily, i.p.) in mice with LPS treatment plus sciatic nerve axotomy. Group 4: 20 mg/kg of peptide D treatment (once daily, i.p.) in mice with LPS treatment plus sciatic nerve axotomy.
This mouse model was further optimized by adding one dose of lipopolysaccharide (LPS) injection (5 mg/kg, i.p.) when performing surgery. LPS injection aggravated the observed TDP-43 proteinopathy as assessed at day 3 post-surgery.

The test system of test [3] is mice with LPS plus sciatic nerve axotomy. Put plainly: LPS (1 mg/kg daily) plus sciatic nerve axotomy in mice: microglia activation and motor neuron death. In kind it is in vivo, mouse. To be noted: LPS 1 mg/kg daily i.p. plus axotomy. The protocol:
FIG. 15: Example peptide D reduces microglia activation in lumbar spinal cord of mice with LPS plus sciatic nerve axotomy. Mice underwent LPS administration (1 mg/kg, daily, i.p.) plus sciatic nerve axotomy on day 0 and tissues were collected and fixed on day 7 post-surgery. Iba-1 staining of lumbar spinal cord of mice in each indicated group were counterstained with DAPI. 20 mg/kg of peptide D was injected daily through the i.p. route.
FIG. 16: Example peptide D prevents motor neuron death in ventral horn of spinal cord (L6) of mice with LPS plus sciatic nerve axotomy. Mice underwent LPS treatment (1 mg/kg, daily, i.p.) plus sciatic nerve axotomy on day 0 and tissue was collected and fixed on day 7 post-surgery. Markers of (A) ChAT staining (red) indicating motor neurons and (B) NeuN staining (green) counterstained with DAPI indicated alpha motor neurons in ventral horn of mice in each group. […]
Although neurodegeneration was detected in spinal cord of mice treated with a high dose of LPS (5 mg/kg, i.p.) plus sciatic nerve axotomy, motor neuron death was not observed in this model. […]
Since LPS causes systematic inflammation, microglia activation in ventral horn of spinal cord was first detected by staining with an Iba-1 antibody. […]

TDP-43 (Mus musculus, UniProt Q921F2), sequence (Q921F2 whole entry): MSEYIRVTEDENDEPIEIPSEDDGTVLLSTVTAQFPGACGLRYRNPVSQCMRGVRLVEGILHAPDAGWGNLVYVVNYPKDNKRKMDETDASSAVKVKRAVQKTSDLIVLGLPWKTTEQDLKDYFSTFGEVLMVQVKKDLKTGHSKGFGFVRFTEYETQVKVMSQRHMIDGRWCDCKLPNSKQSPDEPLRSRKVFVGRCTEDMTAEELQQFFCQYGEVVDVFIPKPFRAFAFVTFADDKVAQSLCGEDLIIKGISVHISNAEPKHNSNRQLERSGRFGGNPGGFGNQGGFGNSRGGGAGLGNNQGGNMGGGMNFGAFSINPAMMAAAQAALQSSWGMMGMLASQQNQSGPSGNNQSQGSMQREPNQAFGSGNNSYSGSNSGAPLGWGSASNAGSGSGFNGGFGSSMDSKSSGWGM

Turning to “peptide D: candidate peptide from a CK-1δ binding region for TDP-43, truncated HIV-1 TAT domain added at the N-terminal (YGRKKRRQRRRGFSYDYVFDWNMLK)”, in test [1], the “PARP cleavage caused by sodium arsenite” value is on record as “less PARP cleavage”; the “insoluble TDP-43 and phosphoTDP-43” value is “reducing”. In addition, in test [2], the “TDP-43 and phosphoTDP-43 aggregation” value is “reduced TDP-43 and phosphoTDP-43 aggregation in a dose dependent manner”. In addition, the “general microglia activation in lumbar spinal cord (Iba-1)” value in test [3] (day 7, 20 mg/kg daily i.p.) is “reduced”. Further, the “motor neuron death (ChAT and NeuN staining)” value in test [3] (day 7 post-surgery) was “less motor neuron death”.
